Legend:
[1] = Aggregation by analytical size-exclusion chromatography (AnSEC); assay type: physicochemical; conditions: conjugate with linker-payload C-5
Description: Conjugates were profiled using analytical size-exclusion chromatography (AnSEC) on Zenix C-300 3 um 7.8×150 mm column (Sepax Technologies). Alternatively, samples were tested on a KW-803 column (TIC Cat #6960940) Aggregation was analyzed based on analytical size exclusion chromatography and reported as the % monomer based on AUC of the assigned monomer peak.
The sample shown below in Table 20 achieved >90% conjugation efficiency and >95% purity as assessed by AnSEC. This illustrates that conjugates of the invention can be made efficiently and have favorable characteristics.

[2] = target: T1, cynomolgus monkey DC-SIGN, full length, stably expressed on CHO cells (cynomolgus monkey, UniProt Q95J96 1-403 (rhesus entry)); assay: flow cytometry, CHO cells expressing cyno DC-SIGN
T1 construct: also called cyno DC-SIGN CHO
T1 sequence: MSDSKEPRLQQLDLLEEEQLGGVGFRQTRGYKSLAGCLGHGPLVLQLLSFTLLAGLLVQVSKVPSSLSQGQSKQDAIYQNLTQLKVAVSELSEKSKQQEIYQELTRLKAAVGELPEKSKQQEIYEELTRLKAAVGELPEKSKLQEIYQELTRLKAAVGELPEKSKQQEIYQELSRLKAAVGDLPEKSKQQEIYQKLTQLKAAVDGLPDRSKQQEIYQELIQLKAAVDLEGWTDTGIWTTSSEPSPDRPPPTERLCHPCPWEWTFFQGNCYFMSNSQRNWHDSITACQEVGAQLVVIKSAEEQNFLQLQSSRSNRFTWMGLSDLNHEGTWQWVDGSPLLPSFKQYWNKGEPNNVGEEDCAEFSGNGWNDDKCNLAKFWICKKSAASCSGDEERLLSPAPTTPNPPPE
Description: (§1) The affinity of various antibodies and ADCs to DC-SIGN and its species orthologues was determined using FACS. Purified IgGs were titrated to determine EC50 values for binding to cell surface expressed DC-SIGN.
(§2) For this purpose, human DC-SIGN expressing or cynomolgus monkey DC-SIGN expressing stable CHO cell lines or K562 expressing DC-SIGN or K562 expressing L-SIGN cell lines were checked for density and viability using VICELL (Beckman Coulter), and washed once with 4° C. PBS. Cells were stained with DAPI (0.5 ug/mL) diluted in PBS for 30 min on ice. Cells were diluted into 4° C. FACS buffer (PBS, 10 mM EDTA, 2% FBS). 125 μl of cells were seeded (10,000 cells/well) into 96-well v-bottom plates (Nunc cat #442587) and centrifuged for 4 min at 1500 rpm at 4° C. Supernatant was removed. […] Following incubation, cells were spun down (1500 rpm, 4 min, 4° C.) and washed two times with FACS buffer. A fluorophore-conjugated anti-hFc gamma-AF-647 (Southern Biotechnology) detection antibody was added at 1:400 dilution and samples were incubated for 1 h on ice in the dark.

[3] = target: T2, human DC-SIGN, full length, stably expressed on CHO or K562 cells (human, UniProt Q9NNX6 1-404); assay: flow cytometry, CHO cells expressing human DC-SIGN
T2 construct: Also the native/transgenic human DC-SIGN on moDCs, macrophages and Tg+ mouse dendritic cells in the functional entries; also called human DC-SIGN CHO; human DC-SIGN K562
T2 sequence: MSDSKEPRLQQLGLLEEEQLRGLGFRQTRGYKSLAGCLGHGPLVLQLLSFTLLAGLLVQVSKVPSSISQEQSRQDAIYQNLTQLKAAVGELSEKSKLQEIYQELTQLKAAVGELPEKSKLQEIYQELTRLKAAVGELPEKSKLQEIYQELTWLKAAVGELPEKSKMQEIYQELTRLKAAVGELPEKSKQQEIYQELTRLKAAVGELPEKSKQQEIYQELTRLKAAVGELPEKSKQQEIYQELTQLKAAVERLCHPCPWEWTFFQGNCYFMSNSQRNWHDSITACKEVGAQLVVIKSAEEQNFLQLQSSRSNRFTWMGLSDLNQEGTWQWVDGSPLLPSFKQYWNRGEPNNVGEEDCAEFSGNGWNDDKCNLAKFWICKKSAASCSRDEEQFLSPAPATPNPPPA
Description: as §1, §2

[4] = target: T2, human DC-SIGN, full length, stably …; assay: flow cytometry, K562 cells expressing human DC-SIGN
Description: as §1, §2

L-SIGN = target: T3, L-SIGN (Homo sapiens, UniProt Q9H2X3); assay: FACS binding to L-SIGN expressing K562 cells
T3 construct: expressed in transfected cells; host or cells: K562 (retroviral transduction)
T3 sequence (Q9H2X3 1-399): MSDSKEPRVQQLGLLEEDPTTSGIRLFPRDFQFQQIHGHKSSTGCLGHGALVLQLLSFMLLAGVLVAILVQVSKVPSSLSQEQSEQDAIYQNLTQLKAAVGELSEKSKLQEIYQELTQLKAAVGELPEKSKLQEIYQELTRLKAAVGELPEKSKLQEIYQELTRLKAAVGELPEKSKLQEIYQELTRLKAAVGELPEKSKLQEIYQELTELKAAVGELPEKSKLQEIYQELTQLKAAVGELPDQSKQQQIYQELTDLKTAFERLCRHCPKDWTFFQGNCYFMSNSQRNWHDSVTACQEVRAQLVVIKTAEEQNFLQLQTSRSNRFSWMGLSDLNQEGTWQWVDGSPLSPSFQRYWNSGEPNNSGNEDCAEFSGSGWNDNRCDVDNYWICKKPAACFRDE
Description: as §1
For this purpose, human DC-SIGN expressing or cynomolgus monkey DC-SIGN expressing stable CHO cell lines or K562 expressing DC-SIGN or K562 expressing L-SIGN cell lines were checked for density and viability using VICELL (Beckman Coulter), and washed once with 4° C. PBS. Cells were stained with DAPI (0.5 ug/mL) diluted in PBS for 30 min on ice. Cells were diluted into 4° C. FACS buffer (PBS, 10 mM EDTA, 2% FBS). 125 μl of cells were seeded (10,000 cells/well) into 96-well v-bottom plates (Nunc cat #442587) and centrifuged for 4 min at 1500 rpm at 4° C. Supernatant was removed. […] After the final wash, cells were resuspended in Fixative Buffer (Biolegend, 420801) and 90 μl of FACS buffer followed by readout on the flow cytometry machine (BD LSRFortessa Cell Analyzer; Cat #647177). Geometric Mean fluorescence intensity (MFI) of live, single cells was calculated in Flowjo 10.4.2 and exported into Graphpad Prism7 for EC50 determination.
Selectivity was assessed by measuring apparent binding affinities to isogenic cell pairs engineered to overexpress DC-SIGN as well as cell lines expressing DC-SIGN paralog L-SIGN.

B1: 2B2 Chimeric (antibody)
heavy: EVQLQQSGAELVRPGSSVKMSCKTSGYTFTNYGINWVKQRPGQGLEWIGYIYIGNDYTEYNERFKGKATLTSDTSSSTAHIQLNSLTSEDSAIYFCARLYYGSSLYSYAMDYWGQGTSVTVSSASTKGPSVFPLAPSSKSTSGGTAALGCLVKDYFPCPVTVSWNSGALTSGVHTFPAVLQSSGLYSLSSVVTVPSSSLGTQTYICNVNHKPSNTKVDKRVEPKSCDKTHTCPPCPAPELLGGPSVFLFPPKPKDTLMISRTPEVTCVVVAVSHEDPEVKFNWYVDGVEVHNAKTKPREEQYNSTYRVVSVLTVLHQDWLNGKEYKCKVSNKALAAPIEKTISKAKGQPREPQVYTLPPSREEMTKNQVSLTCLVKGFYPCDIAVEWESNGQPENNYKTTPPVLDSDGSFFLYSKLTVDKSRWQQGNVFSCSVMHEALHNHYTQKSLSLSPGK
light: DIVMTQAAPSVSVTPGESVSISCRSSKSLLHSSGNTYLYWFLQRPGQSPQLLISRMSNLASGVPDRFSGSGSGTAFTLRISRVEAEDVGVYYCMQHLEYPYTFGGGTKLELKRTVAAPSVFIFPPSDEQLKSGTASVVCLLNNFYPREAKVQWKVDNALQSGNSQESVTEQDSKDSTYSLSSTLTLSKADYEKHKVYACEVTHQGLSSPVTKSFNRGEC
[1]; after preparative SEC
  % Monomer: 99%
[1]; before preparative SEC
  % Monomer: 95.4%

B2: 1G12 Parental (antibody, V domains shown)
VH: QVQLQQSGPGLVQPSQSLSITCTVSGFSLTNYGVHWVRQSPGKGLEWLGVIWRGESTDYNAAFMSRLSVTKDDSKSQVFFKMNSLQADDTAIYYCARNGGSSGWYFDVWGTGTTVTVSS
VL: DIQMTQTHKFMSTSVGDRVSITCKASQDVTSAVAWYQQTPGQSPNLLIYWTSTRHTGVPDRFTGSGSGTDYTLTISSVQAEDLALYYCQQHYTTPLTFGAGTKLELK
[2]
  EC50: 0.07 µg/mL
[3]
  EC50: 0.06 µg/mL
[4]
  EC50: 0.02 µg/mL

B3: 2B2 Hz: Humanization of Antibodies 2B2 and 1G12: variable region constructs were designed for humanization and optimization of sequences (antibody)
heavy: QVQLVQSGAEVKKPGASVKVSCKASGYTFTNYGINWVRQAPGQRLEWMGYIYIGNDYTEYNERFKGRVTITSDTSASTAYMELSSLRSEDTAVYYCARLYYGSSLYSYAMDYWGQGTTVTVSSASTKGPSVFPLAPSSKSTSGGTAALGCLVKDYFPCPVTVSWNSGALTSGVHTFPAVLQSSGLYSLSSVVTVPSSSLGTQTYICNVNHKPSNTKVDKRVEPKSCDKTHTCPPCPAPELLGGPSVFLFPPKPKDTLMISRTPEVTCVVVAVSHEDPEVKFNWYVDGVEVHNAKTKPREEQYNSTYRVVSVLTVLHQDWLNGKEYKCKVSNKALAAPIEKTISKAKGQPREPQVYTLPPSREEMTKNQVSLTCLVKGFYPCDIAVEWESNGQPENNYKTTPPVLDSDGSFFLYSKLTVDKSRWQQGNVFSCSVMHEALHNHYTQKSLSLSPGK
light: DIVMTQSPLSLPVTPGEPASISCRSSKSLLHSSGNTYLYWFLQKPGQSPQLLISRMSNLASGVPDRFSGSGSGTDFTLKISRVEAEDVGVYYCMQHLEYPYTFGGGTKVEIKRTVAAPSVFIFPPSDEQLKSGTASVVCLLNNFYPREAKVQWKVDNALQSGNSQESVTEQDSKDSTYSLSSTLTLSKADYEKHKVYACEVTHQGLSSPVTKSFNRGEC
L-SIGN
  human L-SIGN K562 EC50: >10 µg/mL
